Measured values as given in publication PMC11695723.

Assays:
[1] = target: Origin Recognition Complex (ORC) (UniProt P54784); test: pull-down; pre-RC assay as a2 but with 3 mM ATP, WT Cdc6, low salt wash
[2] = target: Origin Recognition Complex (ORC); test: pre-RC assembly on DNA beads, silver-stained gel band quantification; conditions: ATP, low salt wash; read off a plot

| complex formation compared to WT [1] [%] | response [2] | Substance |
| --- | --- | --- |
| 65 |  | MCM2-7-ΔC2, P29469 1-847; P24279 1-971; P30665 1-933; P29496 1-775; P53091 1-1017; P38132 1-845 |
|  | 0.5 | MCM2-7 (wild type) mutant Mcm5:E710R; Mcm5:E717R; Mcm5:E736R [S. cerevisiae] / Origin Recognition Complex (ORC) [not stated] chain 4 E710R, chain 4 E717R, chain 4 E736R |
|  | 0.25 | MCM2-7 (wild type) mutant Mcm5:K757D; Mcm5:R764E; Mcm5:R772E [S. cerevisiae] / Origin Recognition Complex (ORC) [not stated] chain 4 K757D, chain 4 R764E, chain 4 R772E |
|  | 0.28 | MCM2-7 (wild type) mutant Mcm5:R721E; Mcm5:R735E [S. cerevisiae] / Origin Recognition Complex (ORC) [not stated] chain 4 R721E, chain 4 R735E |
